This assay addresses taxol-stabilized microtubules. In words: co-sedimentation; normalized COS7 lysates in PEM buffer incubated with taxol-stabilized microtubules with 2.5 mM AMP-PNP, RT 30 min; 100,000 x g 40 min through a taxol-supplemented cushion; supernatant and pellet blotted for KIF5 and tubulin.
In turn, “KIF5C(1-560)^S176A-3xmCit (from UniProt P28738 1-560) (domain or fragment)” had a percent co-purified with microtubules of 100%.
Then “KIF5C(1-560)^S176D-3xmCit (from UniProt P28738 1-560) (domain or fragment)”, with 60%.
Then “KIF5C(1-560)^WT-3xmCit (from UniProt P28738 1-560) (domain or fragment)”, with 100%.

Source of the values: paper PMC4791394.
